pKd: −log10 of the molar value.
Target: actin filament (barbed end) (UniProt P68135)
Experiment: seeded pyrene-actin polymerization

pKd: 7.48
Substance: CPαβ(ΔC34) (from UniProt P47753 1-286; P47757-2 1-272) (complex)

From paper PMC2991585
